Experimental data as given in the supplement of paper PMC9170038.

Tested on: MS2 coat protein
Experiment: apparent KD of MS2 coat protein; designed switch direction (-1 OFF switch, 1 ON switch): -1; higher = weaker reporter binding
Outline: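 Designed RNA switches were transcribed on Illumina chips by stalled E. coli RNA polymerase and titrated with SNAP-549-labelled MS2 coat protein from 0.7 or 1.5 nM, doubling to 3 µM. Step length ran from 0.8–1.5 h at the lowest concentration to 10–20 min at the highest. The apparent KD is the median over clusters for each design, from curve-fitted normalised cluster fluorescence.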

[1] = Eterna round: R95, input ligand: FMN 200 uM
[2] = Eterna round: R95, input ligand: microRNA oligo, concentration not stated
[3] = Eterna round: R95, input ligand: none
[4] = input ligand: microRNA oligo, concentration not stated

AGUAGGUCUACCUUGGUGGAUCUGCAUUUAUGCAGGUGAACAUGAGGAUCACCCAUGUCCUCAUUUGCUCGUCUUAU [JL turnoff v2 99.28] (puzzle: Sensor v3, turn-off variant 2)
apparent KD of MS2 coat protein [1]: 55.3 nM
apparent KD of MS2 coat protein [2]: 539 nM
apparent KD of MS2 coat protein [3]: 61.5 nM

CCUAUGUGAGGAUAUGUCUGGUCUUCUUUUGUUUUUUACAGACAGAAGGCACAUGAGGAUCACCCAUGUCAGAC [Ex4 - 3 - 47] (puzzle: Exclusion 4)
apparent KD of MS2 coat protein [2]: 17 nM

UUUUCAUAUGAAGGAUAUACUUAACAUGAGGAUCACCCAUGUGGUGUUGUGAGUGAGUGAGUUUAGUAGAAGGUCAAGUAUUUU [JMF's solution 48] (Eterna round: R96, puzzle: Exclusion NG 2)
apparent KD of MS2 coat protein (input ligand: FMN 200 uM): 805 nM
apparent KD of MS2 coat protein [4]: 304 nM
apparent KD of MS2 coat protein (input ligand: none): 304 nM

ACAUGAGGAUCACCCAUGUUUGGCUGGUCCUCUCCGGCUGUCGAGGAUAUAGUACGGUAUCCGCGCUAGAAGGUGAGGGCCGGC [Aenatbe] (Eterna round: R96, puzzle: Exclusion NG 3)
apparent KD of MS2 coat protein (input ligand: FMN 200 uM): 16.4 nM
apparent KD of MS2 coat protein [4]: 10.1 nM
apparent KD of MS2 coat protein (input ligand: none): 17.1 nM

CGUUCGCGUGUAGGAUAUGUGUCUGUGUCGGGCGCAGAAGGACAUGAGGAUCACCCAUGUCUGCGGGUGUGGGCGCUCUCUGCG [-29, -28 kcal A 14%] (Eterna round: R96, puzzle: Exclusion NG 1)
apparent KD of MS2 coat protein (input ligand: FMN 200 uM): 69.6 nM
apparent KD of MS2 coat protein [4]: 18.2 nM
apparent KD of MS2 coat protein (input ligand: none): 26.9 nM

GUCAGACGAGGAUAUAAAUUUGAUAACAUGAGGAUCACCCAUGUGAUCGAUAGAUCAAAUUUAGAAGGUGUCUGAC [E5/7-B3] (Eterna round: R97, puzzle: Exclusion 5)
apparent KD of MS2 coat protein (input ligand: FMN 200 uM): 487 nM
apparent KD of MS2 coat protein (input ligand: none): 501 nM

GCUAGAGCAGGAUAUCUAGAUCCUCACAUGAGGAUCACCCAUGUAGUCGAAAGACUAAGAAGAGAAGGGCUCUAGC [Omei Ex5 E17] (Eterna round: R97, puzzle: Exclusion 5)
apparent KD of MS2 coat protein (input ligand: FMN 200 uM): 133 nM
apparent KD of MS2 coat protein (input ligand: none): 8.81 nM

AGUUGGCGAGGAUAUACAUGAGGAUCACCCAUGUGAAAUAUAAGAGUGAGGAAGAAAAGUAGAAGGCGCUGACA [Mat - Exclusion 3 - Mod of Salish D43] (puzzle: Exclusion 3)
apparent KD of MS2 coat protein [2]: 80.4 nM

GCGAAAGCAAGCAAGUGAAACAUGAGGAUCACCCAUGUCCUCGUUUGCUCGUCUUAUAAGCUAUGCGAAAGCAUAGC [Sensor 3, v1 - 4] (puzzle: Sensor v3, turn-off variant 1)
apparent KD of MS2 coat protein [1]: 12.9 nM
apparent KD of MS2 coat protein [2]: 105 nM
apparent KD of MS2 coat protein [3]: 10.2 nM

CACCGUUAGCGAGGAUAUCGUACAUGAGGAUCACCCAUGUAAUAAAUGAGAAUUUCGGAUGUAUGCGAGAAGGCGCAAAUCGGC [Ostracism 41 - Jieux - Exclusion NG 2] (Eterna round: R96, puzzle: Exclusion NG 2)
apparent KD of MS2 coat protein [4]: 45.3 nM

GCUGGUCAAGGAUAUACAUGAGGAUCACCCAUGUAGAUCAACCAGCGAUAGCUGGAAUGUAGAAGGUGACCAGC [E3/5-C1] (Eterna round: R97, puzzle: Exclusion 3)
apparent KD of MS2 coat protein (input ligand: FMN 200 uM): 48.4 nM
apparent KD of MS2 coat protein (input ligand: none): 15.5 nM

AACCUACAUGAGGAUCACCCAUGUGAGGAUAUAUUGGUAUUGAUGUUAUUUUUUAGAGGUAGAAGGCGCGUGAU [JR_Exc1_Sub022] (Eterna round: R97, puzzle: Exclusion 1)
apparent KD of MS2 coat protein (input ligand: FMN 200 uM): 15 nM
apparent KD of MS2 coat protein (input ligand: none): 14 nM

CUUAUGUCAGGAUAUUAGUAGUAAAUAAAUAAAAUUAUUACUGAGAAGGGACAUGAGGAUCACCCAUGUUCCUC [Salish 062 v4] (Eterna round: R97, puzzle: Exclusion 4)
apparent KD of MS2 coat protein (input ligand: FMN 200 uM): 96 nM
apparent KD of MS2 coat protein (input ligand: none): 23.9 nM

GCGCGCGUUGUGAGGAUAUCGGGCCCGAAAGGGCCCGAGAAGGCACAUGAGGAUCACCCAUGUAAGGUGUGUGU [-35.5, -34.8 kcal, A 23%, 0-6bis] (Eterna round: R97, puzzle: Brourd's mod of Exclusion 4)
apparent KD of MS2 coat protein (input ligand: FMN 200 uM): 619 nM
apparent KD of MS2 coat protein (input ligand: none): 613 nM

UGUUGUCGCGUAGGAUAUGGCCAACAGGCCGUAGGAUAUGGGAAACCAGAAGGACCGCCAACAGGCGAGAAGGACGGGACAACU [pwkr exNG2 2xF7 2xFMN.21] (Eterna round: R96, puzzle: Exclusion NG 2)
apparent KD of MS2 coat protein (input ligand: FMN 200 uM): 127 nM
apparent KD of MS2 coat protein [4]: 49.4 nM
apparent KD of MS2 coat protein (input ligand: none): 72 nM

UAUAUAUAGUAAGGAUAUGUAUUUAUAUUAUAAACAGAAGGUACUGACAUGAGGAUCACCCAUGUUUUAGUGUGGGCAUGUAGA [JMF's solution 15] (Eterna round: R96, puzzle: Exclusion NG 1)
apparent KD of MS2 coat protein [4]: 66.6 nM

UAGAUGGGAGGAUAUACGUAGAUGCGGAUUCGUGUGGUGCUACAUGAGGAUCACCCAUGUAGAAGGCCCGUCUU [JL-ex2-2.25 Mayanne mod] (puzzle: Exclusion 2)
apparent KD of MS2 coat protein [2]: 15.6 nM

AAGAUGCGGAUAGGAUAUGGAGAGAAAGAAAGACCAGAAGGAUUGGUCAUAUAACAUGAGGAUCACCCAUGUAUAUGUUGUGAA [AK ExNG1-3.2] (Eterna round: R96, puzzle: Exclusion NG 1)
apparent KD of MS2 coat protein [4]: 13 nM

GAUCAGUCAGGAUAUCAAUCCGCCUGUGAUACGCAGGCGGCUGAGAAGGGACAUGAGGAUCACCCAUGUAAAGA [jl-ex4-4.22 ViennaUCT mod] (Eterna round: R97, puzzle: Exclusion 4)
apparent KD of MS2 coat protein (input ligand: FMN 200 uM): 191 nM
apparent KD of MS2 coat protein (input ligand: none): 80.4 nM

CACCUGAAUACAGGAUAUCUUACAUGAGGAUCACCCAUGUAAUAAAUGAGAAUUUCGAAUGUAAUAGAGAAGGGUAGAUAAGGC [Ostracism 87 - Jieux - Exclusion NG 2] (Eterna round: R96, puzzle: Exclusion NG 2)
apparent KD of MS2 coat protein (input ligand: FMN 200 uM): 39.2 nM
apparent KD of MS2 coat protein [4]: 26.5 nM
apparent KD of MS2 coat protein (input ligand: none): 33.1 nM

GGCAAAUUUGUAAGGAUAUUGAGCAGCGAAGAGCUCGAGAAGGUACAUGAGGAUCACCCAUGUUUCUCAGACGC [Eternabot (Original) Solution 49] (Eterna round: R97, puzzle: Brourd's mod of Exclusion 4)
apparent KD of MS2 coat protein (input ligand: FMN 200 uM): 43.4 nM
apparent KD of MS2 coat protein (input ligand: none): 17.7 nM

ACAUGAGGGAAGGGAGGAGGGACAUGAGGAUCACCCAUGUCUCAGGAUAUAGAAGAAGAAAGAAACUAGAAGGGAGAGGAGGGU [Kawasakiqro] (Eterna round: R96, puzzle: Exclusion NG 3)
apparent KD of MS2 coat protein (input ligand: FMN 200 uM): 29.7 nM
apparent KD of MS2 coat protein [4]: 16.6 nM
apparent KD of MS2 coat protein (input ligand: none): 25 nM

ACAUUACAUGAGGAUCACCCAUGUGAGGAUAUGGAGCGAGACUGUCCUGUCGCGUACACCAGAAGGCGCGGGUG [1st #51] (Eterna round: R97, puzzle: Exclusion 1)
apparent KD of MS2 coat protein (input ligand: FMN 200 uM): 115 nM
apparent KD of MS2 coat protein (input ligand: none): 131 nM

CUCGCUGUGGUUAGGAUAUGUGGGUUAGCAGGCGCAUAGAAGGAACAUGAGGAUCACCCAUGUGGGUUGGUGCG [Eternabot (L2) Solution 88] (Eterna round: R97, puzzle: Brourd's mod of Exclusion 4)
apparent KD of MS2 coat protein (input ligand: FMN 200 uM): 39.4 nM
apparent KD of MS2 coat protein (input ligand: none): 62.7 nM

CUGCUUUUGGUGAGGAUAUGCGGUAGCUGGGUACCGCAGAAGGCACAUGAGGAUCACCCAUGUGAUCUGAAAGC [Eternabot (L1) Solution 5] (Eterna round: R97, puzzle: Brourd's mod of Exclusion 4)
apparent KD of MS2 coat protein (input ligand: FMN 200 uM): 687 nM
apparent KD of MS2 coat protein (input ligand: none): 61.2 nM

AAACCCUGAGGAUAUACAUAACAACAAAUCCUCACGUGCCAACAUGAGGAUCACCCAUGUAGAAGGCAGGCCAA [Mod R3 Insanara 5 - Jieux - Exclusion 2] (Eterna round: R97, puzzle: Exclusion 2)
apparent KD of MS2 coat protein (input ligand: FMN 200 uM): 49.2 nM
apparent KD of MS2 coat protein (input ligand: none): 15.8 nM

ACACAUGAGGAUCACCCAUGUCGGGUCAUAUCCUUCGAGGGCUAGGAUAUCGGGACUACGAAGCCCGAGAAGGAGCACUCGUUA [Ceorsobi] (Eterna round: R96, puzzle: Exclusion NG 3)
apparent KD of MS2 coat protein (input ligand: FMN 200 uM): 251 nM
apparent KD of MS2 coat protein [4]: 66.3 nM
apparent KD of MS2 coat protein (input ligand: none): 105 nM

UGCUGACGAGGAUAUACAUGAGGAUCACCCAUGUUGGUCAAGCGACUUCGGUCGCAAUGUAGAAGGCGUCAGCU [E3/8-A6] (Eterna round: R97, puzzle: Exclusion 3)
apparent KD of MS2 coat protein (input ligand: FMN 200 uM): 186 nM
apparent KD of MS2 coat protein (input ligand: none): 395 nM

AAAGUGCUGCGAGGAUAUACAUGAGGAUCACCCAUGUGGAUGUCUGAGGCAAAGCCUCAGACAAUGUAGAAGGCGCAGUACUAA [Mat - Exclusion NG 2 - Mod of JL - D56] (Eterna round: R96, puzzle: Exclusion NG 2)
apparent KD of MS2 coat protein (input ligand: FMN 200 uM): 87.3 nM
apparent KD of MS2 coat protein [4]: 18.2 nM
apparent KD of MS2 coat protein (input ligand: none): 27 nM

CGUGACUCAGGAUAUCUAUAAUAUCACAUGAGGAUCACCCAUGUCCAGCAAUAGCUGGAGGGAGAAGGGAGUCACG [Fiskers Ex 5 - 40] (puzzle: Exclusion 5)
apparent KD of MS2 coat protein [2]: 195 nM

AGAUAUCUAGGAUAUGCGUCGCGGAGGACUCCGAAGGGAGGACAUGAGGAUCACCCAUGUAGAAGGAGACAUUG [Eternabot (L2) Solution 38] (Eterna round: R97, puzzle: Exclusion 2)
apparent KD of MS2 coat protein (input ligand: FMN 200 uM): 46 nM
apparent KD of MS2 coat protein (input ligand: none): 45 nM

UAAUGUAUAUAGGAUAUCUAGCUGGUAACAGCUAGAGAAGGAUGUACAUGAGGAUCACCCAUGUAAAUCUCAAU [Ex6/12-B2] (Eterna round: R97, puzzle: Exclusion 6)
apparent KD of MS2 coat protein (input ligand: FMN 200 uM): 32.5 nM
apparent KD of MS2 coat protein (input ligand: none): 20.9 nM

AAUUGACGCCAAAUAUACAACAUGAGGAUCACCCAUGUACCCUAGGUACGCUCGCAGGCAAGCUUUGCUCGUCCACA [Eternabot (L1) Solution 33] (Eterna round: R97, puzzle: Sensor, turn-off variant 1)
apparent KD of MS2 coat protein (input ligand: FMN 200 uM): 40.2 nM
apparent KD of MS2 coat protein (input ligand: none): 47.9 nM

GGCAAUAACGAGGAUAUCCUAUGGGAAACCAUAGGAGAAGGUGUAACAUGAGGAUCACCCAUGUUCCUCAAGCC [Mat - Exclusion 6 - Eli Mod - D67] (puzzle: Exclusion 6)
apparent KD of MS2 coat protein [1]: 43.3 nM
apparent KD of MS2 coat protein [2]: 34.7 nM
apparent KD of MS2 coat protein [3]: 39.8 nM
